# B1: CPEB3 Ribozyme (parent)
# chain: GGGGGCCACAGCAGAAGCGUUCACGUCGCGGCCCCUGUCAGAUUCUGGUGAAUCUGCGAAUUCUGCUGU
# Variants of: B1
# Test: self-cleavage, relative activity (ratio to wild type); higher = more cleavage; co-transcriptional
row,Variant,self-cleavage
1,G5C C22U,0.0752
2,G4C U21C,0.215
3,G4C U21A,0.427
4,G4C U21G,0.0719
5,G5C A40C,0.213
6,G5C A40G,0.171
7,G5A C29U,0.303
8,G5A C29A,0.229
9,G4U A60C,0.171
10,G4U A60U,0.219
11,G4U U49G,0.357
12,G5C C24U,0.112
13,G5C C24G,0.0631
14,G4U G37A,0.144
15,G4U G37C,0.169
16,G4C U38A,0.639
17,G4C U38G,0.152
18,G4U A8U,0.737
19,G5A C45G,0.823
20,G5A C45U,0.913
21,G5A C45A,0.832
22,G5A A23U,0.931
23,G5C C6G,0.0983
24,G4C U61G,0.178

row,Variant,self-cleavage
1,G4C U61C,0.169
2,G5A A40C,0.213
3,G5A A40G,0.866
4,G4U U43A,0.455
5,G4U U43G,0.389
6,G5A A52U,0.891
7,G5A A52C,0.837
8,G5A A52G,0.92
9,G5A G28U,0.144
10,G5A G28A,0.1
11,G5A G28C,0.124
12,G5C A51C,0.152
13,G5C A51U,0.269
14,G5C A51G,0.228
15,G5A U53G,0.335
16,G4U C45A,0.554
17,G4U C45U,0.743
18,G4U C45G,0.587
19,G5A A16U,0.639
20,G5A A16G,0.811
21,G5C A59G,0.229
22,G4U C24A,0.122
23,G4U C24G,0.0638
24,G4U G41C,0.126

row,Variant,self-cleavage
1,G5A C34G,0.155
2,G5A C24U,0.378
3,G5A C24G,0.0961
4,G5A C24A,0.341
5,G4U G25A,0.101
6,G4U G25U,0.0695
7,G4U G25C,0.116
8,G4C U69G,0.914
9,G4C U69A,0.877
10,G5A C7A,0.134
11,G5A C7U,0.501
12,G5A C7G,0.0847
13,G5A C32A,0.847
14,G5A U62C,0.423
15,G5A C35G,0.134
16,G5A C35A,0.203
17,G5A C35U,0.365
18,G4C U62G,0.311
19,G4C U62C,0.213
20,G4U G68U,0.928
21,G4C U44G,0.265
22,G4U G19A,0.0808
23,G4U G19U,0.112
24,G4U G19C,0.0957

row,Variant,self-cleavage
1,G4U A23G,0.502
2,G5A C22U,0.129
3,G5A C22G,0.0902
4,G4U C34A,0.167
5,G4U C34G,0.113
6,G4U C34U,0.361
7,G4U A51C,0.524
8,G4U A51U,0.772
9,G4U A51G,0.692
10,G4U G31C,0.0584
11,G4U G31U,0.126
12,G4U A10U,0.983
13,G4U C27A,0.11
14,G4U C27U,0.114
15,G4C U26A,0.125
16,G4C U26G,0.217
17,G5C A10C,0.176
18,G5C A10G,0.289
19,G5C A23G,0.144
20,G5C A23C,0.228
21,G5C A23U,0.333
22,G4U U21C,0.4
23,G4U U21A,0.654
24,G5A C66A,0.727

row,Variant,self-cleavage
1,G5A C66G,0.826
2,G4U U44G,0.384
3,G4U U44C,0.552
4,G5C C29A,0.144
5,G4C U53C,0.239
6,G4C U53A,0.316
7,G5A U21A,0.837
8,G5A U21C,0.56
9,G5C A52G,0.287
10,G5C A52U,0.123
11,G5C A52C,0.259
12,G4C U20C,0.0911
13,G4C U20G,0.072
14,G4U U38C,0.525
15,G4U U38A,0.73
16,G4U U64G,0.589
17,G4U U64A,0.535
18,G4U U64C,0.602
19,G5A A42U,0.71
20,G5A A42G,0.812
21,G4C U36C,0.589
22,G4C U36A,0.0958
23,G4C U36G,0.481
24,G5A C27A,0.141

row,Variant,self-cleavage
1,G5A C27U,0.201
2,G5A C27G,0.104
3,G5A G65A,0.812
4,G5A G65C,0.532
5,G5A U55A,0.69
6,G5A U55C,0.403
7,G5A G14A,0.325
8,G5A G14U,0.365
9,G5A G14C,0.159
10,G5C C18A,0.097
11,G5C C18G,0.12
12,G5C C18U,0.148
13,G5A C39A,0.533
14,G5A C39G,0.752
15,G5A U44G,0.631
16,G5A U44A,0.655
17,G5A U44C,0.858
18,G4U C33U,0.975
19,G4U C33A,1
20,G4U U20A,0.121
21,G4U U20C,0.14
22,G4U U20G,0.0683
23,G4U A52G,0.722
24,G4U A52U,0.677

row,Variant,self-cleavage
1,G4U A52C,0.519
2,G4U C6G,0.0353
3,G4U C6A,0.0552
4,G5C C12A,0.141
5,G5A A59G,0.753
6,G5A A59C,0.259
7,G5A U36A,0.146
8,G5A A51U,0.859
9,G5A A51G,0.849
10,G5A A51C,0.82
11,G5A C9A,1.01
12,G5A G11C,0.578
13,G5A G11U,0.778
14,G5C A42C,0.207
15,G5C A42U,0.265
16,G5A G19A,0.12
17,G5A G19C,0.0992
18,G5A C63A,0.427
19,G5A C63U,0.915
20,G5A G37U,0.165
21,G5A G37C,0.171
22,G4U G50A,0.752
23,G4U A15U,0.272

# — the RNAGym collection of RNA variant scans (doi:10.7554/elife.80360)
